According to PMC7591906, “pHLIP ICG for delineation of tumors and blood flow during fluorescence-guided surgery” (Scientific Reports, 2020):
“Also recorded” adds a separate entry of the source. Like-named read-outs stand apart in the source and are kept apart here. Peptide text beside a SMILES is read from it. * marks the point of attachment. X1 = CC1(C)C(/C=C/C=C/C=C/C=C2/N(CCCCCC(=O)NCCN3C(=O)CC(*)C3=O)c3ccc4ccccc4c3C2(C)C)=[N+](CCCCS(=O)(=O)[O-])c2ccc3ccccc3c21

What was measured:
[1] = pH-dependent insertion into POPC liposomes (circular dichroism at 222 nm); format: physicochemical; conditions: 5 µM pHLIP ICG, 750 µM POPC liposomes, CD 222 nm, 25.0°C, Henderson-Hasselbalch fit
Protocol: POPC (1-palmitoyl-2-oleoyl-sn-glycero-3-phosphocholine, Avanti Polar Lipids, Inc.) liposomes were used in biophysical measurements to mimic cell membranes and investigate the pHLIP ICG interactions with lipid bilayers. Large unilamellar vesicles (LUVs) were prepared by extrusion. POPC dissolved in chloroform was desolvated in a rotary evaporator and placed under high vacuum for 2 hours to create a phospholipid film. Lipids were then rehydrated in phosphate buffer (pH8) and repeatedly extruded through membranes with a pore size of 100 nm to make LUVs.
Circular dichroism (CD) measurements were employed to monitor the pH-dependent insertion of pHLIP ICG into the membrane of POPC liposomes and the formation of helical structure. […] CD spectra were recorded from 200 to 260 nm with steps of 1 nm. The pH-dependent insertion of pHLIP ICG into the lipid bilayer of POPC liposomes was studied by monitoring the changes in the molar ellipticity (measured in millidegrees) at 222 nm as a function of pH. After the addition of aliquots of citric acid, the pHs of solutions containing 5 μM pHLIP ICG and 750 µM POPC liposomes were measured using an Orion PerHecT ROSS Combination pH Micro Electrode and an Orion Dual Star pH and ISE Benchtop Meter before and after each spectrum measurement to ensure that equilibrium is achieved. […]

[2] = Imaging of blood vessels in mice; format: in vivo, athymic female nude mice; conditions: 2.5 nmol single tail vein injection, NIR imaging of leg and ear, five animals
Protocol: Single tail vein administrations of 2.5 nmol of ICG-Cys or pHLIP ICG in sterile PBS or PBS with 5% DMSO or 5% Ethanol (vol:vol) (volume of the injection was 100 μl) were given to athymic female nude mice (strain Hsd Athymic Nude-Foxn1nu) ranging in age from 5 to 6 weeks (obtained from Envigo RMS Inc). Mice were under gas anesthesia, and imaging of mouse leg and ear was performed immediately and at different time points (from 5 min till 120 min) after administration of ICG-Cys or pHLIP ICG using the Stryker 1558 AIM clinical imaging system with L10 AIM Light Source, 1588 AIM Camera and a 10 mm scope and a Novadaq imaging system. Five animals per construct were used in the study.

[3] = Imaging of blood vessels in pigs; format: in vivo; conditions: i.v. 0.052 + 0.12 + 0.24 mg/kg, Stryker 1688 AIM and SPY-PHI
Protocol: Pigs (50 kg) received pHLIP ICG dissolved in PBS or PBS containing 5% Ethanol. Three doses of pHLIP ICG were administered (dose level 1 is 0.052 mg/kg of pHLIP ICG, dose level 2 is an additional administration of 0.12 mg/kg of pHLIP ICG and dose level 3 is an additional administration of 0.24 mg/kg of pHLIP ICG). Each dose was injected intravenously in one bolus followed by a saline flush. Endoscopical and exoscopical imaging was performed at the same time and up to 2 hrs after pHLIP ICG administration. Endoscopic imaging was carried out using the Stryker 1688 system with the L11 light source (808 nm excitation) and adjustable gain. […] Images and video were recorded on a Stryker Connected OR Hub device. […] The overlay mode captures an NIR frame and a white light frame and combines the two to allow surgeons to have the best fluorescence reference (green) while still operating. […] The ENV mode contains the white light frame data in a black/white mode and overlays the fluorescence signal in green to provide a hybrid mode that allows a higher signal-to-noise ratio view of the fluorescence image while still retaining enough of a view of the surrounding tissue to allow the surgeon to continue to operate. The SPY-PHI system has three infrared imaging modes: Overlay, Contrast, and CSF (color-segmented fluorescence). […]

[4] = Single-dose and 7-days repeat i.v. toxicity with TK in Beagle dogs (GLP); format: in vivo; conditions: for AUC(0-t) / C0: 2.16 mg/kg, daily i.v. bolus 2.16 mg/kg
Protocol: The objectives of this GLP study, performed at CRL, were to determine the potential toxicity of pHLIP ICG, when given by single dose i.v. injection or once daily (i.v. injections) for 7 days in dogs, and to evaluate the potential reversibility of any findings following the single dose injection. In addition, toxicokinetic characteristics of pHLIP ICG were examined.
The following parameters and end points were evaluated in the study: mortality, clinical observations, body weights, food consumption, ophthalmology and electrocardiology assessments, clinical pathology parameters (hematology, coagulation, clinical chemistry, and urinalysis), toxicokinetic parameters, gross necropsy findings, organ weights, and histopathological examinations.

[5] = Follow up 7-days repeat i.v. toxicity in male B6D2F1 mice (GLP); format: in vivo
Protocol: The purpose of this GLP study performed at MSK was to assess the acute and delayed toxicity on the male reproductive system of mice of a repeat administration of pHLIP ICG at different concentrations. The pHLIP ICG was administered once/day for 7 consecutive days.
Throughout the study, body weights, clinical signs, and histopathology were collected.

[6] = Cardiovascular telemetry study in conscious Beagle dogs (GLP); format: in vivo; conditions: male dogs, single i.v. bolus 0.072, 0.36, 1.44 mg/kg, up to 24 h post-dose
Protocol: The objective of this GLP study performed at CRL was to evaluate the potential cardiovascular effects of pHLIP ICG in instrumented dogs when administered by i.v. bolus injection using a Latin square design.
Each of the four male dogs received a dose of Reference Item (5 % Ethanol in Phosphate buffered saline (PBS), pH of 7.4 ± 0.2) and three dose levels of pHLIP ICG (0.072, 0.36, and 1.44 mg/kg), with a 7-day washout period between each dose. The dose was administered by i.v. bolus injection at a dose volume of 2.5 mL/kg.
The following cardiovascular parameters were evaluated for all animals from 2 hours prior and up to 24 hours post each dose: systemic blood pressures (systolic, diastolic, mean arterial, and pulse pressure), heart rate, body temperature, and electrocardiographic duration/intervals (PR, QRS, QT, and QTc). Qualitative evaluation of the electrocardiographic waveforms was performed twice prior to each dose (at least 30 minutes apart) and at 5, 15, and 30 minutes, 1, 2, 3, 4, 6, 12, and 24 hours post-dose. Additional evaluations consisted of mortality and clinical observations. There were no mortalities or pHLIP ICG related clinical signs throughout the course of the study.

## CC(C)C[C@H](NC(=O)[C@H](Cc1ccc(O)cc1)NC(=O)[C@H](C)NC(=O)[C@H](CCCNC(=N)N)NC(=O)[C@H](Cc1c[nH]c2ccccc12)NC(=O)[C@@H]1CCCN1C(=O)[C@H](CC(N)=O)NC(=O)[C@H](CCC(N)=O)NC(=O)[C@H](CC(=O)O)NC(=O)[C@H](CC(=O)O)NC(=O)[C@H](CSC1CC(=O)N(CCNC(=O)CCCCCN2/C(=C/C=C/C=C/C=C/C3=[N+](CCCCS(=O)(=O)[O-])c4ccc5ccccc5c4C3(C)C)C(C)(C)c3c2ccc2ccccc32)C1=O)NC(=O)[C@H](C)N)C(=O)N[C@@H](CC(=O)O)C(=O)N[C@@H](CC(C)C)C(=O)N[C@@H](CC(C)C)C(=O)N[C@@H](Cc1ccccc1)C(=O)N1CCC[C@H]1C(=O)N[C@H](C(=O)N[C@@H](CC(=O)O)C(=O)N[C@H](C(=O)N[C@@H](CC(C)C)C(=O)N[C@@H](CC(C)C)C(=O)N[C@@H](CC(C)C)C(=O)N[C@@H](CC(=O)O)C(=O)N[C@@H](CC(C)C)C(=O)N[C@@H](CC(C)C)C(=O)N[C@@H](Cc1c[nH]c2ccccc12)C(=O)N[C@@H](C)C(=O)O)[C@@H](C)O)[C@@H](C)O (some centres unmarked) [pHLIP ICG] (H-AC(X1)DDQNPWRAYLDLLFPTDTLLLDLLWA-OH)
[1]
  Midpoint of the transition (pK) of insertion into liposomes: 6.3 pH
[2]
  Time for which blood vessels are clearly revealed: up to 2 h
[3]
  Visibility of illuminated blood vessels: clearly visible at 2 h post-injection
[4]; 2.16 mg/kg/day i.v. for 7 days, males and females, non-adverse
  Clinical chemistry changes: minimal decreases in cholesterol
[4]; Beagle, dog, in vivo, iv, mean, read-out: AUCTlast, day 1
  AUC(0-t): 65400 ng·h/mL
[4]; Beagle, dog, in vivo, iv, mean, read-out: AUCTlast, day 7
  AUC(0-t): 72300 ng·h/mL
[4]; Beagle, dog, in vivo, iv, mean, read-out: C0, day 1
  C0: 38400 ng/mL
[4]; Beagle, dog, in vivo, iv, mean, read-out: C0, day 7
  C0: 42700 ng/mL
[4]; both sexes, Beagle, dog, in vivo, iv, 2.16 mg/kg/day for 7 days, mean, males and females, read-out: Cmax at NOAEL
  Cmax: 40300 ng/mL
[4]; males and females, 7 days repeated i.v. administration
  NOAEL: above 2.16 mg/kg/day
[4]; single i.v. bolus 0.063, 1.08, 2.16 mg/kg or once daily for 7 days at 2.16 mg/kg/day
  Overall toxicity finding: did not adversely affect the overall health or condition of the animals
[5]; male B6D2F1 mice, 4.92, 7.38, 12.3 mg/kg/day i.v. for 7 days
  Toxicity finding, male reproductive system: well tolerated, with no indication of germ cell degeneration or other toxicity to the male reproductive system
[5]; male and female mice, 7 days repeated i.v. administration
  NOAEL: above 12.3 mg/kg/day
[6]
  Cardiovascular effects: no observable effect on systemic blood pressures, heart rate, body temperature, electrocardiographic intervals; also recorded: no effect on systemic blood pressures, heart rate, body temperature, electrocardiographic intervals, or qualitative ECG parameters
